Experiments:
human PD-L1 ECD-His [1] = target: T1, human PD-L1 ECD-His (human, UniProt Q9NZQ7 19-238); test: BLI, ratio of KD to parental PL3#7-19
T1 construct: extracellular domain; Analyte in all SPR and BLI runs; also called hPD-L1_ECD-His; hPD-L1 ECD-His; not shown: His tag
Description: (§1) Briefly, black 96-well plate was prepared with columns containing 200 μL/well of reagents required for determination of affinity. In general, Octet anti-human-Fc sensors were first placed in wells containing 1×Kinetics Buffer (PBS, 0.1% BSA, 0.02% Tween-20, pH 7.4) for 180 seconds to establish a baseline. Sensors were then transferred to wells containing […] anti-PD-L1 variants for 600 seconds to load the anti-human-Fc tips. Sensors were then placed in fresh 1×Kinetics Buffer for 180 seconds to establish a baseline. Association was then measured by incubating the sensors for 3 minutes in wells containing hPD-L1-His followed by transferring to wells containing 1×Kinetics Buffer for 10 minutes to measure dissociation. Sensors were then regenerated by 3X5 second incubations in Regeneration Buffer (10 mM Glycine, pH 1.5) followed by a 5 second incubation in 1×Kinetics Buffer each time. Regeneration was repeated before measurement of each association/dissociation cycle. […] All data were analyzed with Octet Data Analysis Software v.9.0 and representative of two independent experiments performed in duplicate.
(§2) All the data are representative of two independent experiments performed in duplicate.

human PD-L1 ECD-His [2] = target: T1, human PD-L1 ECD-His; test: BLI Octet RED96, antibody on AHC anti-human-Fc sensor, hPD-L1-His analyte, 1:1 fit
Description: as §1, §2

[3] = target: T2, human PD-L1 on cells (PHA-activated human T cells); PD-L1-transfected CHO-S cells; A375 melanoma cells; … (human, UniProt Q9NZQ7 19-290); test: flow cytometry on PD-L1 transfected CHO-S cells, anti-human IgG Fc-FITC, MFI
T2 construct: whole, on cells; also called PD-L1 expressing T cells; PD-L1 expressing CHO-S cells
T2 sequence (Q9NZQ7 19-290): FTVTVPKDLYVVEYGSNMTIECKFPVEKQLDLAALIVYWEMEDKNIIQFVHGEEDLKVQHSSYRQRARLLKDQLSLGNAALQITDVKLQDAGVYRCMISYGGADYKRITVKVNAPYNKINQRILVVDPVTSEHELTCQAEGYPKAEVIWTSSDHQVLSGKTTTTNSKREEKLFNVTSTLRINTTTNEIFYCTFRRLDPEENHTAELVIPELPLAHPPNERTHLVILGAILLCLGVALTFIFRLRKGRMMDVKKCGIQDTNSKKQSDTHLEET
Description: Binding of tested de-glycosylated variants was assessed by incubating the PD-L1 expressing CHO-S cells (2E5 cells/well) with the serial-diluted antibodies in FACS buffer (PBS with 1% FBS) at 4° C. for 30 minutes. These cells were washed with flow buffer and then stained with anti-human IgG Fc-FITC (1:500×) at 4° C. for 30 minutes to detect antibody binding on the cell surface. Flow cytometric analyses were performed using CytoFlex (Beckman Coulter Inc.).

human PD-L1 ECD-His [4] = target: T1, human PD-L1 ECD-His; test: BLI, ratio of KD to ref-1
Description: (§3) Briefly, black 96-well plate was prepared with columns containing 200 μL/well of reagents required for determination of affinity. In general, Octet SA sensors were first placed in wells containing 1×Kinetics Buffer (PBS, 0.1% BSA, 0.02% Tween-20, pH 7.4) for 180 seconds to establish a baseline. […] Sensors were then regenerated by 3×5 second incubations in Regeneration Buffer (10 mM Glycine, pH 1.5) followed by a 5 second incubation in 1×Kinetics Buffer each time. Regeneration was repeated before measurement of each association/dissociation cycle. Sensors were then placed in fresh 1×Kinetics Buffer for 180 seconds to establish a baseline. Association was then measured by incubating the sensors for 5 minutes in wells containing hPD-L1-His followed by transferring to wells containing 1×Kinetics Buffer for 10 minutes to measure dissociation. Kinetics (ka, kd, and […] were measured by global fitting four association/dissociation cycles of data obtained from 1:3 serial dilutions of hPD-L1-His from 38.28 nM to 1.42 nM (one association/dissociation cycle for one concentration) with a 1:1 Langmuir binding model. All data were analyzed with Octet Data Analysis Software v.9.0 and representative of two independent experiments performed in duplicate.
as §2

human PD-L1 ECD-His [5] = target: T1, human PD-L1 ECD-His; test: BLI, ratio of KD to parental PL3#7-43
Description: as §1, §2

human PD-L1 ECD-His [6] = target: T1, human PD-L1 ECD-His; test: BLI Octet RED96, biotinylated antibody on SA sensor, hPD-L1-His analyte, 1:1 fit
Description: as §3, §2

[7] = target: T3, mouse PD-L1 on B16-F10 melanoma cells (mouse, UniProt Q9EP73 19-290); test: flow cytometry on mouse PD-L1 expressing B16-F10 melanoma cells, FITC-labeled anti-human IgG Fcγ, MFI
T3 construct: whole, on cells
T3 sequence (Q9EP73 19-290): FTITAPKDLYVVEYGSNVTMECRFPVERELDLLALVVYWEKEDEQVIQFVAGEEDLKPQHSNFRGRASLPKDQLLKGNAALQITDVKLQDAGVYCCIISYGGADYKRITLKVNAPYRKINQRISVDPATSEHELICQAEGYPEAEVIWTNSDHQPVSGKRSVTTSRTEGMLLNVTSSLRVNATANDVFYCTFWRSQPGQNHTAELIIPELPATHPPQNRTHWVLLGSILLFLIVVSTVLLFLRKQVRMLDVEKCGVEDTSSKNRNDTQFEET

[8] = target: T2, human PD-L1 on cells (PHA-activated …); test: flow cytometry on A375 human melanoma cells, biotin-labeled anti-human IgG Fcγ and streptavidin-PE, MFI
[9] = target: T2, human PD-L1 on cells (PHA-activated …); test: flow cytometry on NCI-H292 human NSCLC cells, biotin-labeled anti-human IgG Fcγ and streptavidin-PE, MFI
[10] = target: T2, human PD-L1 on cells (PHA-activated …); test: flow cytometry on PHA-activated human T cells, biotin-labeled anti-human IgG Fcγ and streptavidin-PE, MFI
[11] = target: T4, recombinant cynomolgus monkey PD-L1_ECD Fc-fusion protein (Sino Biological Inc.) (cynomolgus monkey, UniProt G7PSE7 19-238); test: ELISA: cynomolgus monkey PD-L1_ECD/Fc coated (9 ng/well), peroxidase-labeled goat anti-human IgG F(ab)'2, TMB, OD450
T4 construct: Bought
T4 sequence (G7PSE7 entry or part of it limits assumed): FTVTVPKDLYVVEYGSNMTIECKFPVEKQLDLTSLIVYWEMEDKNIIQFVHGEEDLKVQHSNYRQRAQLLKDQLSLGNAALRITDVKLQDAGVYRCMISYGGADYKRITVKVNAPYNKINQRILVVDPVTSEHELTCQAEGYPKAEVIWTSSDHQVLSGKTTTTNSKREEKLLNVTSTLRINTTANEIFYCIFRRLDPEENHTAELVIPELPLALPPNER
Description: The recombinant cynomolgus monkey PD-L1_ECD Fc-fusion proteins were purchased from Sino Biological Inc. PD-L1_ECD/Fc (9 ng per well) were immobilized onto 96-well assay plat by incubating overnight at 4° C. Nonspecific binding sites were blocked using 5% skim milk in PBS for one hour at room temperature. After washing plates three times with PBST, indicated concentrations of anti-PD-L1 antibodies and HLX01 (negative control) were incubated with the immobilized proteins for one hour at room temperature. The plates were washed three times with PBST and then incubated for one hour at room temperature with peroxidase-labeled goat anti-human IgG F(ab)′2 (Jackson ImmunoResearch Laboratories) diluted 1/10,000 in PBS. After washing, plates were developed using TMB (eBioscience). The absorbance was read at the wavelength of 450 nm by Varioskan LUX microplate reader (Thermo Scientific).
HLX01 (anti-CD20 mAb) was used as the negative control.

human PD-L1 ECD-His [12] = target: T1, human PD-L1 ECD-His; test: SPR, ratio of KD to ref-1
human PD-L1 ECD-His [13] = target: T1, human PD-L1 ECD-His; test: SPR, hPD-L1-His, comparison of IgG isotypes of PL2#3

T1 sequence (Q9NZQ7 19-238): as the sequence (G7PSE7 entry or part of it limits assumed) above, with T33A, S34A, N62S, Q68R, R82Q, L173F, A185T, I192T, L215H counted along it

Fold Difference (against parental variant) (human PD-L1 ECD-His [1]) | Kd (human PD-L1 ECD-His [2]) | koff (human PD-L1 ECD-His [2]) | kon (human PD-L1 ECD-His [2]) | EC50 (read off the curve) [3] | Improvement over ref-1 (human PD-L1 ECD-His [4]) | Fold Difference (against parental variant) (human PD-L1 ECD-His [5]) | Kd (human PD-L1 ECD-His [6]) | koff (human PD-L1 ECD-His [6]) | kon (human PD-L1 ECD-His [6]) | EC50 (read off the curve) [7] | EC50 (read off the curve) [8] | EC50 (read off the curve) [9] | EC50 (read off the curve) [10] | EC50 (read off the curve) [11] | binding result [7] | Improvement over ref-1 (human PD-L1 ECD-His [12]) | Kd (human PD-L1 ECD-His [13]) | koff (human PD-L1 ECD-His [13]) | kon (human PD-L1 ECD-His [13]) | Binder
1 fold | 0.619 nM | 0.000207 s⁻¹ | 328000 M⁻¹ s⁻¹ | ~0.2 µg/mL | 4.57 fold | – | 0.538 nM | 0.000201 s⁻¹ | 419000 M⁻¹ s⁻¹ | – | ~0.01 µg/mL | ~0.02 µg/mL | – | ~0.05 µg/mL | no binding (tested: 5 µg/mL) | – | – | – | – | PL3#7-19 mtIgG1 (antibody, V domains shown, Antibody was biotinylated (NHS-PEG4-biotin, sites not specified) for the Octet assay of Table 11., N297A mutant human IgG1; also called PL3#7-19 parental mtIgG1) VH: QVQLVQSGAEVKKPGSSVKVSCKASGGTFSSYPISWVRQAPGQGLEWMGRIIPILGIANYAQKFQGRVTITADKSTSTAYMELSSLRSEDTAVYYCARSRDGYAFGAFDVWGQGTLVTVSS VL: QSVVTQPPPVSGAPGQRVTISCTGSSSNIGGGYDVHWYQQLPGTAPKLLIYGNSTRPSGVPDRFSGSKSGTSASLAITGLQAEDEADYYCQTYDSSLSATVVFGGGTKLTVLG
– | 0.439 nM | 0.000271 s⁻¹ | 612000 M⁻¹ s⁻¹ | ~0.2 µg/mL | – | 0.79 fold | – | – | – | – | – | – | – | – | – | – | – | – | – | PL3#7-43 deglyco1 mtIgG1 (antibody, V domains shown, N297A mutant human IgG1; also called PL3#7-43 deglycol) VH: QVQLVQSGAEVKKPGSSVKVSCKASGGTFSSYPISWVRQAPGQGLEWMGRIIPILGIANYAQKFQGRVTITADKSTSTAYMELSSLRSEDTAVYYCARSRPGYAFGAFDIWGQGTLVTVSS VL: QSVVTQPPPVSGAPGQRVTISCTGSSSNVGAGYDVHWYQQLPGTAPKLLIYGNSNRPSGVPDRFSGSKSGTSASLAITGLQAEDEADYYCQTYDSSGSARVVFGGGTKLTVLG
– | – | – | – | – | 1 fold | – | 2.46 nM | 0.000561 s⁻¹ | 221000 M⁻¹ s⁻¹ | – | ~0.002 µg/mL | ~0.01 µg/mL | ~0.003 µg/mL | ~0.03 µg/mL | no binding (tested: 5 µg/mL) | 2.86 fold | 0.221 nM | 0.000286 s⁻¹ | 1.33e+06 M⁻¹ s⁻¹ | PL2#3 mtIgG1 (N297A) (antibody, V domains shown, N297A mutant of human IgG1 Fc backbone) VH: EVQLVQSGGGLVKPGGSLRLSCAASGFTFSSYTMNWVRQAPGKGLEWVSSISSGSDYLYYADSVKGRFTISRDNAKNSLYLQMNSLRAEDTAVYYCARNELRWYPQAGAFDRWGQGTMVTVSS VL: QSVVTQPPSMSAAPGQRVTISCSGSSSYIESSYVGWYQQLPGTAPRLLIYDDDMRPSGIPDRFSGSKSGTSATLAITGLQTGDEADYYCEIWRSGLGGVFGGGTKLTVLS

The next lines start with the binder.

Binder | Fold Difference (against parental variant) (human PD-L1 ECD-His [1]) | Kd (human PD-L1 ECD-His [2]) | koff (human PD-L1 ECD-His [2]) | kon (human PD-L1 ECD-His [2]) | EC50 (read off the curve) [3] | Improvement over ref-1 (human PD-L1 ECD-His [4]) | Fold Difference (against parental variant) (human PD-L1 ECD-His [5]) | Kd (human PD-L1 ECD-His [6]) | koff (human PD-L1 ECD-His [6]) | kon (human PD-L1 ECD-His [6]) | EC50 (read off the curve) [7] | EC50 (read off the curve) [8] | EC50 (read off the curve) [9] | EC50 (read off the curve) [10] | EC50 (read off the curve) [11] | binding result [7] | Improvement over ref-1 (human PD-L1 ECD-His [12]) | Kd (human PD-L1 ECD-His [13]) | koff (human PD-L1 ECD-His [13]) | kon (human PD-L1 ECD-His [13])
PL3#7-19 deglyco3 mtIgG1 (antibody, V domains shown, N297A mutant human IgG1) VH: QVQLVQSGAEVKKPGSSVKVSCKASGGTFSSYPISWVRQAPGQGLEWMGRIIPILGIANYAQKFQGRVTITADKSTSTAYMELSSLRSEDTAVYYCARSRDGYAFGAFDVWGQGTLVTVSS VL: QSVVTQPPPVSGAPGQRVTISCTGSSSNIGGGYDVHWYQQLPGTAPKLLIYGNSQRPSGVPDRFSGSKSGTSASLAITGLQAEDEADYYCQTYDSSLSATVVFGGGTKLTVLG | 1.74 fold | 0.356 nM | 0.000176 s⁻¹ | 506000 M⁻¹ s⁻¹ | ~0.2 µg/mL | – | – | – | – | – | – | – | – | – | – | – | – | – | – | –
PL3#7-43 mtIgG1 (antibody, V domains shown, Antibody was biotinylated (NHS-PEG4-biotin, sites not specified) for the Octet assay of Table 11., N297A mutant human IgG1; also called PL3#7-43 parental mtIgG1) VH: QVQLVQSGAEVKKPGSSVKVSCKASGGTFSSYPISWVRQAPGQGLEWMGRIIPILGIANYAQKFQGRVTITADKSTSTAYMELSSLRSEDTAVYYCARSRPGYAFGAFDIWGQGTLVTVSS VL: QSVVTQPPPVSGAPGQRVTISCTGSSSNVGAGYDVHWYQQLPGTAPKLLIYGNSNRSSGVPDRFSGSKSGTSASLAITGLQAEDEADYYCQTYDSSGSARVVFGGGTKLTVLG | – | 0.345 nM | 0.000212 s⁻¹ | 628000 M⁻¹ s⁻¹ | ~0.2 µg/mL | 7.86 fold | 1 fold | 0.313 nM | 0.000103 s⁻¹ | 330000 M⁻¹ s⁻¹ | ~0.005 µg/mL | ~0.002 µg/mL | ~0.01 µg/mL | ~0.008 µg/mL | ~0.04 µg/mL | – | – | – | – | –
PL3#7-43 deglyco2 mtIgG1 (antibody, V domains shown, N297A mutant human IgG1; also called PL3#7-43 deg1yco2) VH: QVQLVQSGAEVKKPGSSVKVSCKASGGTFSSYPISWVRQAPGQGLEWMGRIIPILGIANYAQKFQGRVTITADKSTSTAYMELSSLRSEDTAVYYCARSRPGYAFGAFDIWGQGTLVTVSS VL: QSVVTQPPPVSGAPGQRVTISCTGSSSNVGAGYDVHWYQQLPGTAPKLLIYGNSQRSSGVPDRFSGSKSGTSASLAITGLQAEDEADYYCQTYDSSGSARVVFGGGTKLTVLG | – | 0.395 nM | 0.000238 s⁻¹ | 600000 M⁻¹ s⁻¹ | ~0.2 µg/mL | – | 0.87 fold | – | – | – | – | – | – | – | – | – | – | – | – | –
